# According to article PMC7695694, “Yeast Nup84-Nup133 complex structure details flexibility and reveals conservation of the membrane anchoring ALPS motif” (Nature Communications, 2020):
# B1: VHH-SAN4 (VHH)
# VHH: QLQLVESGGGSVQAGGSLTLSCTASESISKRIHGIGWFRQRRGEQREEIAYITTGGRPNLGDSVKDRFTISRDKSNGTVYLQMNSLKPEDTAVYYCHGRGRWWGTEGRLDYWGQGTQVTVSS
# notes: structure with this nanobody deposited as PDB 6X05; also called nanobody VHH-SAN4; source: E. coli LOBSTR-RIL(DE3), purified (Ni Sepharose, tag cut with bdSENP1, Superdex 75); not shown: 14xHis, N-terminal, cleaved; bdSUMO, N-terminal, cleaved
# B2: VHH-SAN5 (VHH)
# VHH: QVQLVESGGGLVQAGGSLRLSCAASGSIGSLDAMAWYRRAPGKQRERVASISRYGTYYVDSVKGRFTISRDNAKNTVYLQMNSLKPEDTGVYYCKGVMEVGGVIDEYWGQGTQVTVSS
# notes: structure with this nanobody deposited as PDB 6X04; also called nanobody VHH-SAN5; source: E. coli LOBSTR-RIL(DE3), purified (Ni Sepharose, tag cut with bdSENP1, Superdex 75); not shown: 14xHis, N-terminal, cleaved; bdSUMO, N-terminal, cleaved
# B3: VHH-SAN8 (VHH)
# VHH: QLQLVETGGGLVQAGGSLRLSCVASGRTFTSYAMGWFRQAPGKEREFVAAISRLASGTDYADSVKGRFTISRNNDKNTVYLQMNNLIPEDTAVYYCAALQALRFSLPIAMATMKNGRADSWGQGTQVTVSS
# notes: structures with this nanobody deposited as PDB 6X02 and 6X03 (modelled as a generic nanobody without CDRs); Selected by phage display from an alpaca immunised with the full-length Y complex, panned against Nup84; also called VHH8; nanobody VHH-SAN8; source: E. coli LOBSTR-RIL(DE3), purified (Ni Sepharose, tag cut with bdSENP1, Superdex 75); not shown: 14xHis, N-terminal, cleaved; bdSUMO, …
# B4: VHH-SAN9 (VHH)
# VHH: QVQLVESGGGSVQAGGSLRLSCAVSGGTLSTLAMGWFRQAPGQEREFVARIGWTNGDTGYADSVKGRFTISRDNVKNTVYLQMNNLKPEDTALYYCATRRPYGSTLYPPNTESAHDNWGQGTQVTVSS
# notes: structure with this nanobody deposited as PDB 6X03 (modelled as a generic nanobody without CDRs); also called VHH9; nanobody VHH-SAN9; source: E. coli LOBSTR-RIL(DE3), purified (Ni Sepharose, tag cut with bdSENP1, Superdex 75); not shown: 14xHis, N-terminal, cleaved; bdSUMO, N-terminal, cleaved
# Assays:
# Details in all cases: both partners purified
# [1] = molecular target: T1, Nup133 N-terminal domain (Nup133NTD, residues 55-481, S. cerevisiae) (S. cerevisiae, UniProt P36161); test: crystal structure; Nup133NTD-VHH-SAN4, 2.1 Å, molecular replacement; crystals at 18 °C, PEG 3,350, ammonium sulfate, Bis-Tris/HCl pH 5.5
# T1 construct: Nup133, S. cerevisiae, N-terminal beta-propeller domain, residues 55-481; The 6xHis tag is 3C cleavable; also called scNup133NTD; WT-Nup133NTD; source: E. coli LOBSTR-RIL(DE3), purified (Ni Sepharose, Superdex 75)
# T1 sequence (P36161 55-481): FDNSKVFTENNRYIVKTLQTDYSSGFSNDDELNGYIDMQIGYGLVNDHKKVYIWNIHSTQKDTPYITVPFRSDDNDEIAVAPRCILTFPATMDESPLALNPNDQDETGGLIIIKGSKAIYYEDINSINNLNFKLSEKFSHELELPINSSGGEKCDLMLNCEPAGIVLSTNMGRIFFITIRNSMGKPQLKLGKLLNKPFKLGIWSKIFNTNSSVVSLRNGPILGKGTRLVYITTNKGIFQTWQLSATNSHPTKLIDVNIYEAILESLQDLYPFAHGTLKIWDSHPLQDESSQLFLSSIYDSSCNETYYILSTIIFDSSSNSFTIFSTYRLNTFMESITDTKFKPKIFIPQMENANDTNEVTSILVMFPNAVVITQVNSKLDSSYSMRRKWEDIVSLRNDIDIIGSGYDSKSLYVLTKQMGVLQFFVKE
# [2] = molecular target: T1, Nup133 N-terminal domain (Nup133NTD, …); test: crystal structure; Nup133NTD-VHH-SAN5, molecular replacement; six copies in the asymmetric unit; crystals at 18 °C, PEG MME 2,000, potassium chloride, Tris/HCl pH 8.0
# [3] = molecular target: T2, Nup84 (full-length, S. cerevisiae) (S. cerevisiae, UniProt P52891); test: crystal structure; Nup84-Nup133CTD-VHH-SAN8, 6.4 Å, SAD with a [TeW6O24]6- derivative; crystals at 18 °C, PEG 8,000, ethylene glycol, imidazole/MES pH 6.5
# T2 construct: Nup84, S. cerevisiae, full length; The N-terminal 10xHis-8xArg-SUMO tag is 3C cleavable; also called scNup84
# T2 sequence (P52891 whole entry): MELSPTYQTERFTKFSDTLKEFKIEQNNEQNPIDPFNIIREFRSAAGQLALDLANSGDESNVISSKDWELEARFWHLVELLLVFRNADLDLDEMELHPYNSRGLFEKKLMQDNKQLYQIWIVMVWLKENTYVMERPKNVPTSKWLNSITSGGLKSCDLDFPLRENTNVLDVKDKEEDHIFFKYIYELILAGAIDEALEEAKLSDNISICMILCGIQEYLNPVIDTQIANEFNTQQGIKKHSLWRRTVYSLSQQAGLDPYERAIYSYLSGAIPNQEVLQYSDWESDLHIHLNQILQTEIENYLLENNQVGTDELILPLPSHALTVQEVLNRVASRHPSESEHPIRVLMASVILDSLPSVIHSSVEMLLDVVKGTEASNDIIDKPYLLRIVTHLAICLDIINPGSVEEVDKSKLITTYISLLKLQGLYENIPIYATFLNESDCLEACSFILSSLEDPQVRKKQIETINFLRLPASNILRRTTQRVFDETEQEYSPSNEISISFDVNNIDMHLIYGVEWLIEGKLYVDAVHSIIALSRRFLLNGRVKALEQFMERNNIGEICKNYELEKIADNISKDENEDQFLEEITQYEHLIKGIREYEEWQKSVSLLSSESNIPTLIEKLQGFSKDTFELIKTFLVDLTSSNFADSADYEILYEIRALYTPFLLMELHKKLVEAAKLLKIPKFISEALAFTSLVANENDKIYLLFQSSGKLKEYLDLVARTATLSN
# [4] = molecular target: T3, Nup84-Nup133CTD heterodimeric complex (S. cerevisiae) (Saccharomyces cerevisiae (strain ATCC …, UniProt P52891;P36161)); test: as above
# T3 construct: Nup84, S. cerevisiae, full length; source: E. coli LOBSTR-RIL(DE3), co-expressed from a bicistronic vector, purified (Ni Sepharose, SP Sepharose, Superdex 200)
# T3 sequence (P52891 whole entry, chain 1 of 2): as the sequence (P52891 whole entry) above
# T3 sequence (P36161 521-1157, chain 2 of 2): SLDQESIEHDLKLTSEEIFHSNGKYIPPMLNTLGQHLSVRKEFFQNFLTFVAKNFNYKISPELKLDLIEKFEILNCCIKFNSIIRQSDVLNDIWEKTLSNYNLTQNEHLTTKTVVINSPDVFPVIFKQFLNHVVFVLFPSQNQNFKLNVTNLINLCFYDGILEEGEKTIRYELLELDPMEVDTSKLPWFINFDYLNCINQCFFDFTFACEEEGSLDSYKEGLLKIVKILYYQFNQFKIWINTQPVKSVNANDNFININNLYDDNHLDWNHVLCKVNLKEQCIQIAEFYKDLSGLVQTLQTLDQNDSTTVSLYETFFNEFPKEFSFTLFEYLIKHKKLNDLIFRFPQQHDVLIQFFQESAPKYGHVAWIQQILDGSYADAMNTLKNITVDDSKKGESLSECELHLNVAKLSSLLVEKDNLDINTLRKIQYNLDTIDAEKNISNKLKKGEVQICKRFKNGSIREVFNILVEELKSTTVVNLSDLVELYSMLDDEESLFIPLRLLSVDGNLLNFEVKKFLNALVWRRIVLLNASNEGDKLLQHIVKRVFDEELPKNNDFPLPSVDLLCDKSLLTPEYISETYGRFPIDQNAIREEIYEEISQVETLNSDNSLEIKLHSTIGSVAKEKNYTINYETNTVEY
# [5] = molecular target: T2, Nup84 (full-length, S. cerevisiae); test: crystal structure; Nup84-Nup133CTD with VHH-SAN8 and VHH-SAN9, 7.4 Å; crystallised under the same conditions and in the same crystal form as the VHH-SAN8 complex
# [6] = molecular target: T3, Nup84-Nup133CTD heterodimeric complex …; test: as above
binder,measurement,setting,value
B1,binding result,[1],binds
B2,binding result,[2],binds
B3,binding result,[3],binds
same,binding result,[4],binds
B4,binding result,[5],binds
same,binding result,[6],binds
